The target of series [1] is T1, FUS C-terminal RNA-binding module (His6-FUS) (UniProt P35637 269-526). The series can be described thus: EMSA; 150 mM KCl; EMSA: 1 uM RNA, 0/0.1/1/5 uM His6-FUS, 50 mM HEPES-KOH (or HEPES-LiOH) pH 7.4, 150 mM KCl (or LiCl), 200 ng BSA, 2 mM EDTA, 2 mM DTT, 5% glycerol, 30 min 30 C. Particulars: protein: recombinant; tags: His6 (pET28a-TEV); label: none (SYBR Gold stain); none (non-G4). For orientation: In EMSA bound probe runs differently from free probe, usually more slowly.
T1 sequence (P35637 269-526): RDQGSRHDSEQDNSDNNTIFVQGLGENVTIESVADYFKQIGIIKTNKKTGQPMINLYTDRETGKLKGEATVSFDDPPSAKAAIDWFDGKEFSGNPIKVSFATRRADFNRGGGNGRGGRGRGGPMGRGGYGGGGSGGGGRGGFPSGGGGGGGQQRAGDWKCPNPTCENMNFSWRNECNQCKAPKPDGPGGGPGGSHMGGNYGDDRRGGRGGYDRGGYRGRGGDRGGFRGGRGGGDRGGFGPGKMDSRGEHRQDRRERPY

The target in series [2] is T1, FUS C-terminal RNA-binding module …. The series can be described thus: EMSA; 150 mM KCl; supershift with anti-His; EMSA: 1 uM RNA, 0/0.1/1/5 uM His6-FUS, 50 mM HEPES-KOH (or HEPES-LiOH) pH 7.4, 150 mM KCl (or LiCl), 200 ng BSA, 2 mM EDTA, 2 mM DTT, 5% glycerol, 30 min 30 C. Particulars: protein: recombinant, tags: His6 (pET28a-TEV), label: none (SYBR Gold stain).

On to UGUUGCGCGUGUCCCGUGGAGUGGA (ssRNA) [25COPS9 mutant], for which, in series [1], the binding result was “no binding”.
As for UGGUGCGCGGGUCCCGGGGAGGGGA (structured_RNA) [25COPS9 WT], the binding result in series [2] (G4 (in K+)) is given as “binds”.
As to AGGGGGAGGGUGUGGGGGCAGUGAGGGU (structured_RNA) [28RPL23A WT], the binding result in series [2] (intramolecular G4 (in K+)) is “binds”.
Regarding AGUGUGAGUGUGUGUGUGCAGUGAGUGU (ssRNA) [28RPL23A mutant], in series [1], the binding result was “no binding”.
For UUAGGGUUAGGGUUAGGGUUAGGG (structured_RNA) [TERRA WT], in series [2] (intramolecular G4 (in K+)), the binding result is on record as “binds”.

The record behind these values is PMC12482648, “G-quadruplex structural motifs modulate protein–RNA interactions within the transcriptome”.
